In PMC3936742 (Nucleic Acids Research, 2013):

Molecular target: T1, Flag-MnmC(o), C-terminal oxidoreductase domain of MnmC (amino acids 250-668) (E. coli, UniProt P77182 250-668)
T1 sequence (looked up): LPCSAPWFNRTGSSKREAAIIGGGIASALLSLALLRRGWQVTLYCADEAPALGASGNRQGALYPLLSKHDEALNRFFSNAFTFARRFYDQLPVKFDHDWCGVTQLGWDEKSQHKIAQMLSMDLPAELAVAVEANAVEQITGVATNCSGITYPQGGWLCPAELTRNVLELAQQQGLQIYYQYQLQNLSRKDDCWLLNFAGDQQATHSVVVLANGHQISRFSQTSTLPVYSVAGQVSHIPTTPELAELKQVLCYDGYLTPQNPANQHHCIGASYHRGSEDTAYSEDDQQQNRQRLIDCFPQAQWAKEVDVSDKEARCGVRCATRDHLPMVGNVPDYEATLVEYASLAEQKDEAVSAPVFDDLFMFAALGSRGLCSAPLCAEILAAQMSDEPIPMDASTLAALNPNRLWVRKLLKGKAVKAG
Experiment: SPR; His-MnmC(m) captured (~600 RU) on anti-His monoclonal antibody coupled to a CM-5 chip; Flag-MnmC(o) at various concentrations in TBS buffer, 30 µl/min, 25°C; apparent equilibrium constant
Conditions: both partners purified

B1: His-MnmC(m), MnmC(m) domain fused at its N-terminal end to a 6x-His-epitope (domain or fragment, E. coli, UniProt P77182 1-250, looked up)
chain: MKHYSIQPANLEFNAEGTPVSRDFDDVYFSNDNGLEETRYVFLGGNQLEVRFPEHPHPLFVVAESGFGTGLNFLTLWQAFDQFREAHPQAQLQRLHFISFEKFPLTRADLALAHQHWPELAPWAEQLQAQWPMPLPGCHRLLLDEGRVTLDLWFGDINELTSQLDDSLNQKVDAWFLDGFAPAKNPDMWTQNLFNAMARLARPGGTLATFTSAGFVRRGLQDAGFTMQKRKGFGRKREMLCGVMEQTLPL
Question: With B1 as the binder, how does the Kd read?
Answer: Its Kd is 87 ± 15 nM.
